Reference: patent publication US20240181006A1, “POLYPEPTIDES BINDING ADAMTS5, MMP13 AND AGGRECAN” (Merck Patent GmbH, priority 2017, published 2024)

What was measured:
human ADAMTS5 [1] = target: T1, human ADAMTS5 (Homo sapiens, UniProt Q9UNA0); experiment: FRET-based human ADAMTS5 enzymatic assay; type: biochemical
T1 sequence (Q9UNA0 262-930): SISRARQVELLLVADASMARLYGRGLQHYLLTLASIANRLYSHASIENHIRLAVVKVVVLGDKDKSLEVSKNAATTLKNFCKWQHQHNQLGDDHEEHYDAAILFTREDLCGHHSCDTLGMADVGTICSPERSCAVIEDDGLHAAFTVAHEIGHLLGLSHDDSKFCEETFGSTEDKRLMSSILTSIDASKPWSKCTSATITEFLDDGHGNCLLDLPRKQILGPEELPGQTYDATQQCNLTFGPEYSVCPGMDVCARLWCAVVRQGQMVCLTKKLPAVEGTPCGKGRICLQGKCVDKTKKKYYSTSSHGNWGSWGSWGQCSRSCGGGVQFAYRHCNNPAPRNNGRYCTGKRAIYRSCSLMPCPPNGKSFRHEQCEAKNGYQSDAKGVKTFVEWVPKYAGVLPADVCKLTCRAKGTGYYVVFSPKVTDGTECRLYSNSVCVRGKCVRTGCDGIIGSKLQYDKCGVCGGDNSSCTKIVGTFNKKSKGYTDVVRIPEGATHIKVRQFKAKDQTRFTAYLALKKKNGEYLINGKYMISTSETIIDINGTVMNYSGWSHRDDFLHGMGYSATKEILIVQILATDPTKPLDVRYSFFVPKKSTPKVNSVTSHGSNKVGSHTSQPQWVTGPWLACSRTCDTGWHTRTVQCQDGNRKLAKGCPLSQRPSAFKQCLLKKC
Description: In short, a periplasmic extract of ISVD 02F03 was tested for binding to recombinant human ADAMTS5 by binding ELISA. Next, it was confirmed that ISVD 02F03 was able to prevent ADAMTS5-mediated cleavage of Aggrecan in a FRET-based human ADAMTS5 enzymatic assay. Next to the FRET-based assay, an AlphaLISA (Perkin Elmer, Waltham, MA, US) based human ADAMTS5 assay with a biotinylated 43-mer Aggrecan oligopeptide as substrate was performed. Upon ADAMTS5 cleavage of this substrate, a biotinylated ARGSV neo-epitope product is released and can be detected by streptavidin-AlphaScreen donor beads and an α-neo-epitope (“ARGSV”) antibody captured on anti-mouse IgG-coated AlphaLISA acceptor beads, resulting in the generation of a luminescence AlphaScreen signal upon laser excitation. To determine the ability of ISVD 02F03 to prevent ADAMTS5-mediated cleavage of the substrate, the decrease in signal was analysed in function of ISVD 02F03 concentration and IC50 values were calculated.

[2] = test system: bovine cartilage explant chips; experiment: bovine cartilage explant assay, IL-1α induced GAG release (02F03); type: cell-based
Description: In addition, ISVD 02F03 was further evaluated for its ability to block cartilage degradation in an ex vivo assay, in which the substrate is presented in a condition closer to the physiological condition compared to biochemical assays. In brief, bovine cartilage explant chips (diameter 4 mm) were prepared freshly from cow knee joints and incubated in 96-well plates in presence of IL-1α to induce cartilage degradation. As a measure of cartilage/Aggrecan degradation, the release of glycosaminoglycan (GAG) was detected in the supernatant after 5 days of incubation (37° C., 7.5% C02) via the metachromatic dye 1,9 dimethylmethylene blue ([…] at 633 nm). Chondroitin sulphate was included as assay standard. Efficacy was defined by means of the IL-1α-induced controls without compound (0%) and in presence of MSC2310852A (100% effect).

human ADAMTS5 [3] = target: T1, human ADAMTS5; experiment: SPR-based off-rate analysis, human ADAMTS5; type: binding
Description: (§1) Species cross-reactivity was initially evaluated via SPR-based off-rate analysis on a Biacore T100 instrument. Polypeptides were tested for binding to human, cynomolgus monkey (“cyno”), guinea pig, mouse, and bovine ADAMTS5. To this end, recombinant ADAMTS5 was immobilized onto a CM5 chip via amine coupling using EDC and NHS. Purified ISVD 02F03 was injected for 2 minutes at a concentration of 100 nM and allowed to dissociate for 15 min at a flow rate of 45 μl/min. Off-rate for each individual ADAMTS5 was determined by fitting a 1:1 interaction model (Langmuir model) onto the individual dissociation curves using the BIA Evaluation software. As a reference, off-rates on human ADAMTS5 were determined in each experiment.

[4] = test system: cynomolgus monkey ADAMTS5; experiment: SPR-based off-rate analysis, cynomolgus ADAMTS5; type: binding; settings: Experiment 1
Description: as §1

human ADAMTS4 = target: T2, human ADAMTS4 (Homo sapiens, UniProt O75173); experiment: human ADAMTS4 AlphaLISA; type: biochemical; settings: data not shown
T2 construct: purchased R&D Systems 4307-AD
T2 sequence (O75173 213-837): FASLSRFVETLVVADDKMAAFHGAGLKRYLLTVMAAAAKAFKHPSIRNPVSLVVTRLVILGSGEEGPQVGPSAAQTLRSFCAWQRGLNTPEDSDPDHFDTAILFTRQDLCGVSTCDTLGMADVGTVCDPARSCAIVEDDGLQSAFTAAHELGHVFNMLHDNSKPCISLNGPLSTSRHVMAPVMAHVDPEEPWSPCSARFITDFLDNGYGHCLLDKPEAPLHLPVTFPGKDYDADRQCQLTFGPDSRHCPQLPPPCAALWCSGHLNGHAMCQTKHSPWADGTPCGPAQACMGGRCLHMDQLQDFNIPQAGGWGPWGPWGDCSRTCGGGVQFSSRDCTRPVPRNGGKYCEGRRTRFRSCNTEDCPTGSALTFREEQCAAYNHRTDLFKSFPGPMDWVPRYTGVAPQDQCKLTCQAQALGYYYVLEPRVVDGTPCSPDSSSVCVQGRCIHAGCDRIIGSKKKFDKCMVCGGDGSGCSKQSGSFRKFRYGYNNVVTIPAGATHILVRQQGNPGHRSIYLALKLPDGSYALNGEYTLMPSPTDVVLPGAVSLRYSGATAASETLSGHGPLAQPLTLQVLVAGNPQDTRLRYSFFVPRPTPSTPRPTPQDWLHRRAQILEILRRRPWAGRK
Description: To confirm the selectivity of ISVD 02F03 for ADAMTS5, inhibition of the enzymatic activity of MMP1, MMP14 and ADAMTS4 was evaluated via FRET-based assays and a human ADAMTS4 AlphaLISA, with the respective enzymes.
To evaluate inhibition of human ADAMTS4, an assay similar to the human ADAMTS5 AlphaLISA was carried out, essentially as described in Example 2.1, but using human ADAMTS4 (R&D Systems, Minneapolis, US; cat #4307-AD). To determine the ability of ISVD 02F03 to prevent human ADAMTS4-mediated cleavage of the substrate, the decrease in signal was analysed in function of ISVD 02F03 concentration and IC50 values were calculated.

B1: ISVD 02F03: immunoglobulin single variable domain which specifically binds ADAMTS5 (protein)
VHH: EVQLVESGGGVVQPGGSLRLSCAASGRTVSSYAMGWFRQAPGKEREFVAGISRSAERTYYVDSLKGRFTISRDNSKNTVYLQMNSLRPEDTALYYCAADLDPNRIFSREEYAYWGQGTLVTVSS
modifications: Description of Artificial Sequence: Synthetic anti-ADAMTS5 immunoglobulin single variable domain (ISVD)
Human FRET % inhibition (human ADAMTS5 [1]): 89%
IC50 ([2]; IL-1α, GAG release after 5 days): 14 nM
IC50 times lower than mAb 12F4 in bovine explant assay ([2]; versus bivalent mAb 12F4): about 50 times
SPR based off-rate, kd, Human ADAMTS-5 (human ADAMTS5 [3]; Experiment 1): 3.3e-05 s⁻¹
SPR based off-rate, kd, Human ADAMTS-5 (human ADAMTS5 [3]; Experiment 2): 6.5e-05 s⁻¹
SPR based off-rate, kd, Human ADAMTS-5 (human ADAMTS5 [3]; Experiment 3): 9.7e-05 s⁻¹
SPR based off-rate, kd, Cyno ADAMTS-5 [4]: 2.2e-05 s⁻¹
inhibition of human ADAMTS4 activity (human ADAMTS4): did not show any inhibitory activity
